Among the data in PMC3826599 are stoichiometry N values, retold here.

Assay [1] has as its target Giardia lamblia macrophage migration inhibitory factor (Giardia lamblia ATCC 50803). The assay is described as follows: crystal structure.
For assay [2] the target is unchanged. The assay is described as follows: SEC. In general terms: In gel filtration, larger molecules generally elute earlier.

As a reminder, the stoichiometry N is a count of units in the complex or per binding partner. For the substance “Giardia lamblia macrophage migration inhibitory factor (natural protein)”, the stoichiometry N in assay [1] and in assay [2] was 3 throughout.
